In the data set the target is Tau (Tau441, 2N4R) (human, UniProt P10636-8 1-441). Briefly: SPR; 10 mM KCl; SPR (OpenSPR): 50 mM Tris-HCl pH 7.4, 10 mM KCl; biotin-RNA on streptavidin chip, 20 ul/min, 1:1 fit; temperature not stated. The following applies: protein: recombinant, tags: none stated (pET23a-human Tau441). On the technique in general: In SPR one partner is held on a chip, and binding of the other changes the refractive index at the surface.
Tau (Tau441, 2N4R), sequence (P10636 other isoform, or with tags, fused parts or gaps): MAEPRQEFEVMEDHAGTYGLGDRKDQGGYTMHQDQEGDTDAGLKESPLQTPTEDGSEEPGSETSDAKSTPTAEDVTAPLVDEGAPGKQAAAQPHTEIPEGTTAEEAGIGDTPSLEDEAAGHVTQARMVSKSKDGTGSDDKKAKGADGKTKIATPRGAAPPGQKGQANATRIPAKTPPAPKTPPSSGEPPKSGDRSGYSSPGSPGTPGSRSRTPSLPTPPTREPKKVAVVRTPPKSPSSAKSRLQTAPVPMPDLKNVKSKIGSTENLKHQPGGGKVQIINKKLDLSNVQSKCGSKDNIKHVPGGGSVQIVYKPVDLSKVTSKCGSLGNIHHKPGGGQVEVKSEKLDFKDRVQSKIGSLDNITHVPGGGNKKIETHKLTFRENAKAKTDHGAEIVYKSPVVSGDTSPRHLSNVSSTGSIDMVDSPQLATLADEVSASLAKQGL

With CAGCAGCAGCAGCAGCAGCAGCAG (ssRNA) [r(CAG)8], the equilibrium dissociation constant (Kd) (as a rule, a measure of binding affinity in units of concentration) came out at 57.3 ± 13.9 nM. On to UUAGGGUUAGGGUUAGGGUUAGGG (structured_RNA) [G4tr r(UUAGGG)4], for which, under “RNA G-quadruplex”, the Kd is 32.1 ± 8.38 nM.

For AAAAAAAAAAAAAAAAAAAAAAAA (ssRNA) [r(AAA)8], the equilibrium dissociation constant (Kd) worked out at 71.7 ± 27 nM. Turning to UUACCGUUACCGUUACCGUUACCG (ssRNA) [G4mt r(UUACCG)4], the Kd is 52.5 ± 14.3 nM.
